Experimental data published in the supplement of paper PMC12042874.
± gives the uncertainty stated by the source.

Test: amyloid nucleation score (Sup35N fusion, yeast selection) (log enrichment); library NNK3; higher = more nucleation; inactive = no reads after selection
How it was run: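 After 24 hours of induction with 100 μM copper sulfate, psi-negative yeast expressing peptides of 20 random codons fused to Sup35N were grown for 7 days at 30°C on medium lacking adenine and uracil. Input and output plasmid inserts were sequenced with Illumina, and sequences with under 100 input reads were discarded. Scores for nucleation are the DiMSum log enrichment of output over input reads, centred on the mode score of non-aggregating sequences.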

| Substance | amyloid nucleation score |
| --- | --- |
| VNRKEIRHVRLLCPSRGSVA | -0.091 ± 0.43 |
| VNTLPQLLSLYSDLLRGESL | -0.218 ± 1.4 |
| VNYRSNIFNHYCSFSRN | 0.934 ± 0.11 |
| VNYRTQRRTQYTQCTRKVGG | inactive |
| VPDLYSTEDGFSCCVSEYCT | inactive |
| VPIRECTMLSSMSWTGEPSY | inactive |
| VPMFSSLCPYTISLFQGTSP | inactive |
| VPNEVFISYLV | inactive |
| VQDPDL | inactive |
| VQFMMYVGTGIGAVGSGVNY | 1.53 ± 0.11 |
| VQLFSQNALPMFNSWKYYDH | inactive |
| VQSSPVYMFMTNNSF | 1.8 ± 0.056 |
| VQWCPNVYTDSQVCRYVSSR | inactive |
| VRAVLIAYGLK | inactive |
| VRCYRVIMRLTFAETCQGHP | inactive |
| VREFYN | inactive |
| VRIFSTVEKASP | inactive |
| VRMGVNLGNKTLNTWESSCD | inactive |
| VRNKLNCKRSGA | inactive |
| VRPLVDYMMQNM | inactive |
| VRRLFVARCRYCQLMYFRGE | inactive |
| VRSRRLLCKNRTVVEARNVV | inactive |
| VRTRMEPRG | inactive |

| Substance | amyloid nucleation score |
| --- | --- |
| VRVRVHVVVVVKLLKMVGAV | inactive |
| VRVSNYTRVLVYKDRVS | inactive |
| VRVSRNGSVLY | inactive |
| VRWQYVYMPPA | inactive |
| VRYPRSLVCYWYGRNHAVWA | inactive |
| VRYVNGSKCTFNLS | inactive |
| VSACLNSGGQHSQRHANMAV | inactive |
| VSATSQYQSICLSLNTKNRF | inactive |
| VSCRQLYQSIGGRKPDRRFI | inactive |
| VSEIFFADVFISWYGISRVL | inactive |
| VSFQD | inactive |
| VSFSSCTWSMQEERMLVSWG | inactive |
| VSFYSSCVWIDARSCDYCYF | 2.79 ± 0.058 |
| VSGMDCSGGFASVESMASYR | inactive |
| VSLFGCKIMLRMKFGVCLSG | inactive |
| VSLKVFYGNKDARNRDIPTL | inactive |
| VSLLNITTVMSSPRIQGKHV | 1.01 ± 0.12 |
| VSLLSVCGCDRRVFEVWHYG | 0.446 ± 0.2 |
| VSLMMCVVPFMPVLQHMSNA | 0.793 ± 0.16 |
| VSMRPMTSSRLKRFKYRYLY | inactive |
| VSNMCVGMKLCFSDNHYREL | 1.78 ± 0.067 |
| VSTGSAGSLWSV | inactive |
| VSVFMKLVRFET | 1.17 ± 0.091 |

| Substance | amyloid nucleation score |
| --- | --- |
| VSVNMFLYISVNYKELGCEY | 1.93 ± 0.056 |
| VSVYRRLGHIVLVIVITLAS | inactive |
| VTCCLLFLDCGVGSRMMLGL | -0.356 ± 0.98 |
| VTCETSGADVVSTR | inactive |
| VTDEIFELSGKVTIDSAEL | inactive |
| VTFLHGCIDFAGSYSAGSSD | inactive |
| VTGDWTGYMPLCLISVAFLS | 1.5 ± 0.083 |
| VTLFAMPRNL | inactive |
| VTNPLGPFMDRF | inactive |
| VTNSFSIFSGIIVHSTSLMV | 0.032 ± 0.6 |
| VTQATWLGRIYLLLAPA | inactive |
| VTQESNHATIAVLM | inactive |
| VTQLWVLNSVSVYWKDLVAP | -0.319 ± 1.1 |
| VTWNHSSCSERKRVRMSGWS | 0.801 ± 0.14 |
| VVDGLMAVFLSHVRVAIYYV | inactive |
| VVDLIFLSLF | inactive |
| VVLRTSLCVMWINVRHLCDP | inactive |
| VVLWWS | inactive |
| VVMIPNIFCDWRGNGNNQCG | 1.33 ± 0.11 |
| VVRIDSSLGKFNFQSAKD | inactive |
| VVRSRTFTSTSYTF | 0.777 ± 0.23 |
| VVSSFMMLVYMNLLNFSNVE | inactive |
| VVSSRLDAALDCWVREDCGV | inactive |

| Substance | amyloid nucleation score |
| --- | --- |
| VVYYFKMLMGVTLYSMVIWQ | inactive |
| VVYYWSVRITAVQHYWHLYT | inactive |
| VWAYFDMFDTFCYKVTARMK | inactive |
| VWCRQITMMACMSVR | inactive |
| VWCTSVVT | -0.149 ± 0.28 |
| VWCYFVQYHGIISLSFIAFR | inactive |
| VWETATNFSISMLWRQAFRM | inactive |
| VWKLRLDVLIITIWGFNFYL | inactive |
| VWRRKKAGAHYREDVSNYPQ | inactive |
| VWVHA | inactive |
| VWVLHRRRSKYMQVTVWLDL | inactive |
| VWVLYGKITVPSPKARMGKT | -0.083 ± 1.1 |
| VYACWIMSNVPSRAVEILYS | inactive |
| VYFGSWTWSVNSKHLPPALV | inactive |
| VYILFNWSRPSCHLIEHFRA | inactive |
| VYKWRAYIEHSNFWAIKPVC | inactive |
| VYLDFKGWFVMLSINLNQFY | inactive |
| VYLIKPMNDALSHHEPIKWD | inactive |
| VYNCAMVCPNLIFWSFATGL | 2.55 ± 0.069 |
| VYNLIRLFLYPTVISSITPL | inactive |
| VYNRRYKSNRNIYSHGNRLK | 1.54 ± 0.1 |
| VYNVTITNYRNLPAM | 2.24 ± 0.088 |
| VYQLIYVTGCQNAVRE | 0.674 ± 0.32 |

| Substance | amyloid nucleation score |
| --- | --- |
| VYRYFASKIIKGIFSRCCTF | inactive |
| VYSGSFGDSKLLMFWCSITV | inactive |
| VYVRVFGLLPDDTTSSF | inactive |
| WAAWFYASGVRASEGRDYGG | inactive |
| WAEFLCLSSSFFLDM | inactive |
| WAHLGLDNMYKVLCSRGANA | inactive |
| WANMTFTELSYIK | inactive |
| WAYLWLSKNSYGR | inactive |
| WCCHRAFLYI | inactive |
| WCFYFEQDMFHAPY | -0.106 ± 0.82 |
| WCFYKSLIACGHIVGIEPDW | 0.848 ± 0.15 |
| WCFYKSRLFVVQVVVLYNRF | inactive |
| WCRCSFVVLHSVVVCSFGTR | -0.074 ± 0.69 |
| WDDEFVWSGINN | inactive |
| WDFGPEVLSE | inactive |
| WDLITL | inactive |
| WDNITRNWRSCPHQMSLRYL | -0.148 ± 1 |
| WDPECSTDVISEGRGRYTEW | inactive |
| WDPGFFWIMAVARFTIACQY | inactive |
| WDYILGFGHVSQRARMESFD | inactive |
| WFDSAPSPLDLRVHLFNVKV | inactive |
| WFFETQLSLWWVNGQDLAEV | inactive |
| WFFFDIAWRSPTIRRWTSSM | inactive |

| Substance | amyloid nucleation score |
| --- | --- |
| WFTVHLIVCSVRRLDSFVLP | inactive |
| WFVRIIQLIT | inactive |
| WFVYALMNRLEYSKAYFPML | inactive |
| WGCYSWTMVRS | 1.33 ± 0.16 |
| WGLWSVSVCWMRLFPGY | inactive |
| WGMSRLFVYFPVILLMISLT | inactive |
| WGNISGSA | inactive |
| WGSMMSWQVKFVSILNPLPR | inactive |
| WHTLLDCGVGEFWS | inactive |
| WHVEIIVHNMSFSILKNVGR | 1.65 ± 0.1 |
| WIFENMSYIRKICQWCKSYV | inactive |
| WILYSMMQLSMMFKSMYSVT | inactive |
| WIMISKSSMPMTPDAVQAMG | inactive |
| WINTRLGCPDTNRGSTRVTL | inactive |
| WIRDFYEFAEWSSDTCGIRI | inactive |
| WISIVQW | inactive |
| WIVVDKSNQCGLGYVLWYNF | inactive |
| WIWSGMYSNWPNSAPVNIR | inactive |
| WKCVLMTSATHMPQYPHGCG | inactive |
| WKFAGHEALWFLKIIEMLR | inactive |
| WKGWSFNLLLRGILQAIIAS | inactive |
| WKPCS | inactive |
| WKPGRYSTKAPQLEVPERHV | inactive |

| Substance | amyloid nucleation score |
| --- | --- |
| WKRNI | 0.172 ± 0.71 |
| WKYGKLISPFVQDVVSLSIK | inactive |
| WLHFCHSAPSEYFVIMRMCK | inactive |
| WLNEM | inactive |
| WLSNREVFKMYIRLVQLAWL | inactive |
| WMCVLCCSVRNIGKTYKSCL | inactive |
| WMFSRL | inactive |
| WMMNIDYTNSW | inactive |
| WNFYGWRVLSHRRTGSVHRL | -0.847 ± 1.4 |
| WNLSSFININPSYYSDTWHG | 2.08 ± 0.071 |
| WNLVPSHMFFV | inactive |
| WNYGTALMLRQIGSGFICIY | inactive |
| WPTFDCRRM | inactive |
| WQITTRTIDRPHYKHPGVPL | inactive |
| WQIWDRVQTRKFHGEFTYMR | inactive |
| WQPFD | inactive |
| WRAADDQTWGLVRCLSI | 0.57 ± 0.17 |
| WRCLYYMQAYSSN | inactive |
| WRFRIVR | inactive |
| WRFYGYI | inactive |
